Our source for the pKd values is article PMC9482650, “Quantitative fragmentomics allow affinity mapping of interactomes” (Nature Communications, 2022).

Targets include CARD14, Q9BXL6; GRIP2_2, Q9C0E4; GIPC3, Q8TF64; LMO7, Q8WWI1; LNX1_4, Q8TBB1; LIMK1, P53667; PTPN13_2, Q12923; MAGI1_4, Q96QZ7; DVL2, O14641; MAGI3_4, Q5TCQ9; CNKSR3, Q6P9H4.
Common to all, as to experiment: holdup assay
What all share (set-up): key: below the threshold = too weak to quantify, mostly under pKd 3.1 to 4

For another experiment, the target named is T1, USH1C_3, Q9Y6N9.
T1 sequence (Q9Y6N9 447-547, limits assumed, looked up): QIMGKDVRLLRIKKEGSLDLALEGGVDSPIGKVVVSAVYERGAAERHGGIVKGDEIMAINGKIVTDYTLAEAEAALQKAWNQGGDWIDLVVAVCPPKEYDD

The target in the next experiment is T2, SHROOM4, Q9ULL8.
T2 sequence (Q9ULL8 5-102, limits assumed, looked up): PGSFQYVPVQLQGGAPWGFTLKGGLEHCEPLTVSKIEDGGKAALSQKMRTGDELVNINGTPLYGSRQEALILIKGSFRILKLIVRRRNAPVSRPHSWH

The target of a further experiment is T3, SIPA1L3, O60292.
T3 sequence (O60292 961-1052, limits assumed, looked up): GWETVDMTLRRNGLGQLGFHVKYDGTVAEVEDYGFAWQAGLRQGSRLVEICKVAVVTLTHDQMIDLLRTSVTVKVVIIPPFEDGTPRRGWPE

Another experiment has as its target T4, SNTB2, Q13425.
T4 sequence (Q13425 110-208, limits assumed, looked up): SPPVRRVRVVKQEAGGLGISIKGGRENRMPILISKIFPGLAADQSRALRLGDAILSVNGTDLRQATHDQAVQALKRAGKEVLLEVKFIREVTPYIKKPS
The settings on record: plain residues with an end cap or a label only (N-terminal biotin on a linker: (peg)3).

In the next experiment the target is T5, GRIP1_1, Q9Y3R0.
T5 sequence (Q9Y3R0 48-146, limits assumed, looked up): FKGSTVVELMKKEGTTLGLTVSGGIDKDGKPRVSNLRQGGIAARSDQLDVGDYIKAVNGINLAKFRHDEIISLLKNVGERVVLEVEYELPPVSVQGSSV

Another experiment concerns the target T6, MPDZ_6, O75970.
T6 sequence (O75970 1003-1099, limits assumed, looked up): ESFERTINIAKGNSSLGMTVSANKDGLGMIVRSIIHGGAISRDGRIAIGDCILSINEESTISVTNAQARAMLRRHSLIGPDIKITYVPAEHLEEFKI

The next experiment has as its target T7, PREX2_2, Q70Z35.
T7 sequence (Q70Z35 672-764, limits assumed, looked up): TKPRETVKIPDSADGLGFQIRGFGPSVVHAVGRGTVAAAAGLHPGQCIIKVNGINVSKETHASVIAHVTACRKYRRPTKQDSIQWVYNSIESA

The next experiment concerns the target T8, PDZD7_2, Q9H5P4.
T8 sequence (Q9H5P4 205-303, limits assumed, looked up): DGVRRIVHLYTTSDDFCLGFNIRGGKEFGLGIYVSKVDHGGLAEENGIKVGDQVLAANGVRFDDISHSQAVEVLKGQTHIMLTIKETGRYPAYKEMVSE

In a further experiment the target is T9, PDZD2_1, O15018.
T9 sequence (O15018 80-192, limits assumed, looked up): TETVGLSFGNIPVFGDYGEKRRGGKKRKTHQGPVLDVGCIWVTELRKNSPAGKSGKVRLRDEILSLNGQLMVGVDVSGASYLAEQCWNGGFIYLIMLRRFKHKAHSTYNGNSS

The target of another experiment is T10, MPP1, Q00013.
T10 sequence (Q00013 66-162, limits assumed, looked up): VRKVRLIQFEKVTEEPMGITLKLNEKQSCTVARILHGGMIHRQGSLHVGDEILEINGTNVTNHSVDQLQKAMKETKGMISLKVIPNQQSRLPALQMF

In the next experiment the target is T11, PDZD7_1, Q9H5P4.
T11 sequence (Q9H5P4 81-178, limits assumed, looked up): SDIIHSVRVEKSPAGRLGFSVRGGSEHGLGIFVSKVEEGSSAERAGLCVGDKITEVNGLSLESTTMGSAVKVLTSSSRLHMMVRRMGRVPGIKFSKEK

The target of another experiment is T12, MLLT4, P55196.
T12 sequence (P55196 1002-1103, limits assumed, looked up): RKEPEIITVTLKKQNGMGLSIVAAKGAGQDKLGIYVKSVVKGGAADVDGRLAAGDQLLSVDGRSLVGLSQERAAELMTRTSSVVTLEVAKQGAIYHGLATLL

[1] abbreviates: plain residues with an end cap or a label only (N-terminal biotin on a linker: (peg)3).
Setting [2] is: modified: acetyl on K at position -1 from the C-terminal residue.
Where [3] appears, read: modified: phospho on S at position -3 from the C-terminal residue.

Sequence of MAGI3_4, Q5TCQ9 (Q5TCQ9 716-815): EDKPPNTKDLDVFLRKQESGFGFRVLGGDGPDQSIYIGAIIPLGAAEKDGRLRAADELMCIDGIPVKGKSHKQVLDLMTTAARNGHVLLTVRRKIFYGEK
Sequence of PTPN13_2, Q12923 (Q12923 1363-1462): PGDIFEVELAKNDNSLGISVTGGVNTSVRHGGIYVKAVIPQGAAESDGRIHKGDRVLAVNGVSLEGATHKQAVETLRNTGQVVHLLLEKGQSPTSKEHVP
Sequence of CNKSR3, Q6P9H4 (Q6P9H4 203-303): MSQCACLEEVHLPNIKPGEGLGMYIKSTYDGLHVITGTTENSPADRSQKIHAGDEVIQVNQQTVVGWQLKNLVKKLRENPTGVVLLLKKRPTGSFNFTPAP
Sequence of LIMK1, P53667 (P53667 155-268): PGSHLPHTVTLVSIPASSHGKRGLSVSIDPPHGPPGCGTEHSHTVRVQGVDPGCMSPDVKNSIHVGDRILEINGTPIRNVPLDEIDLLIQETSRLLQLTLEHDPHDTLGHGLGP
Sequence of CARD14, Q9BXL6 (Q9BXL6 558-663): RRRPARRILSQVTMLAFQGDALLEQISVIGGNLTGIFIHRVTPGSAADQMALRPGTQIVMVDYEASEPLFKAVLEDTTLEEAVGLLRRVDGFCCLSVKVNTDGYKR
Sequence of LNX1_4, Q8TBB1 (Q8TBB1 631-726): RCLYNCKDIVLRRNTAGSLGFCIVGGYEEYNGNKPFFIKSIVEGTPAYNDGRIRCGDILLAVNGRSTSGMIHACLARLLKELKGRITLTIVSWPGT
Sequence of MAGI1_4, Q96QZ7 (Q96QZ7 other isoform, or with tags, fused parts or gaps): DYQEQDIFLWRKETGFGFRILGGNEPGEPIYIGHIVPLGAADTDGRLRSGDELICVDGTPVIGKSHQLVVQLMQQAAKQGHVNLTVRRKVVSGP
Sequence of GIPC3, Q8TF64 (Q8TF64 107-202): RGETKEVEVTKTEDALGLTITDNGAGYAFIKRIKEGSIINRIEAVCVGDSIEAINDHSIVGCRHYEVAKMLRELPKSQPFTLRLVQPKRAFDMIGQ
Sequence of DVL2, O14641 (O14641 260-359): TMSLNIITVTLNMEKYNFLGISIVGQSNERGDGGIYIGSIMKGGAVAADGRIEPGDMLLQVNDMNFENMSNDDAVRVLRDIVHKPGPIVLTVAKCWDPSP
Sequence of GRIP2_2, Q9C0E4 (Q9C0E4 137-245): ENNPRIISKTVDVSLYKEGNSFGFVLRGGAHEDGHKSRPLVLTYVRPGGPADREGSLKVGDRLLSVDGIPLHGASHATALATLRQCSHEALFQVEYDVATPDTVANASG
Sequence of LMO7, Q8WWI1 (Q8WWI1 1037-1138): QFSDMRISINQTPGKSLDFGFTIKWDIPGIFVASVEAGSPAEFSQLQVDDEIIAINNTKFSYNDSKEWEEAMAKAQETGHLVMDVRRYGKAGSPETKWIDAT

On to YDEPTTTTSVPL [SARS-Cov2-3a, P0DTC3], for which the pKd (usually the negative decadic logarithm of the Kd, by convention in mol/L) with CARD14, Q9BXL6 (setting [1]) is “below the threshold”; with GRIP2_2, Q9C0E4 (setting [1]), “below the threshold”; with GIPC3, Q8TF64 (setting [1]), “below the threshold”; with USH1C_3, Q9Y6N9 (setting [1]), “below the threshold”; with SHROOM4, Q9ULL8 (setting [1]), “below the threshold”; in the experiment with LMO7, Q8WWI1 (setting [1]) it was “below the threshold”. In addition, the pKd result is on record as “below the threshold” with LNX1_4, Q8TBB1 (setting [1]); “below the threshold” with SIPA1L3, O60292 (setting [1]); “below the threshold” with SNTB2, Q13425; “below the threshold” with LIMK1, P53667 (setting [1]); “below the threshold” in the experiment with GRIP1_1, Q9Y3R0 (setting [1]); “below the threshold” in the experiment with MPDZ_6, O75970 (setting [1]). Further, the pKd result with PREX2_2, Q70Z35 (setting [1]) is listed as “below the threshold”; with PTPN13_2, Q12923 (setting [1]), “below the threshold”; with PDZD7_2, Q9H5P4 (setting [1]), “below the threshold”; in the experiment with PDZD2_1, O15018 (setting [1]) it was “below the threshold”; with MAGI1_4, Q96QZ7 (setting [1]), “below the threshold”; with DVL2, O14641 (setting [1]) it was “below the threshold”. For the same molecule, the pKd result with MAGI3_4, Q5TCQ9 (setting [1]) is on record as “below the threshold”; in the experiment with CNKSR3, Q6P9H4 (setting [1]), “below the threshold”; with MPP1, Q00013 (setting [1]) it was “below the threshold”; with PDZD7_1, Q9H5P4 (setting [1]), “below the threshold”; with MLLT4, P55196 (setting [1]), “below the threshold”.
As to DEDQHTQITKV [PTEN_Ac, P60484], the pKd entry with SHROOM4, Q9ULL8 (setting [2]) is listed as “below the threshold”; with SIPA1L3, O60292 (setting [2]), “below the threshold”; with LIMK1, P53667 (setting [2]), “below the threshold”; in the experiment with MPDZ_6, O75970 (setting [2]), “below the threshold”; in the experiment with PREX2_2, Q70Z35 (setting [2]) it was “below the threshold”; in the experiment with PTPN13_2, Q12923 (setting [2]), “below the threshold”. Moreover, the pKd result is listed as “below the threshold” with PDZD2_1, O15018 (setting [2]); “below the threshold” with MAGI3_4, Q5TCQ9 (setting [2]); “below the threshold” in the experiment with MPP1, Q00013 (setting [2]); “below the threshold” with PDZD7_1, Q9H5P4 (setting [2]).
As to RRVRKLPSTTL [RPS6KA1_-3P, Q15418], the pKd result is on record as “below the threshold” with CARD14, Q9BXL6 (setting [3]); “below the threshold” with GRIP2_2, Q9C0E4 (setting [3]); “below the threshold” with GIPC3, Q8TF64 (setting [3]); “below the threshold” with USH1C_3, Q9Y6N9 (setting [3]); “below the threshold” with SHROOM4, Q9ULL8 (setting [3]); “below the threshold” in the experiment with LMO7, Q8WWI1 (setting [3]). The pKd entry in the experiment with LNX1_4, Q8TBB1 (setting [3]) is “below the threshold”; in the experiment with SIPA1L3, O60292 (setting [3]) it was “below the threshold”; in the experiment with GRIP1_1, Q9Y3R0 (setting [3]) it was “below the threshold”; in the experiment with MPDZ_6, O75970 (setting [3]), “below the threshold”; with PREX2_2, Q70Z35 (setting [3]), “below the threshold”; with PTPN13_2, Q12923 (setting [3]), “below the threshold”. The pKd with PDZD7_2, Q9H5P4 (setting [3]) is 3.49; with PDZD2_1, O15018 (setting [3]), “below the threshold”; in the experiment with MAGI1_4, Q96QZ7 (setting [3]), “below the threshold”; with DVL2, O14641 (setting [3]), “below the threshold”; with MAGI3_4, Q5TCQ9 (setting [3]), “below the threshold”; with CNKSR3, Q6P9H4 (setting [3]), “below the threshold”. Moreover, the pKd entry with MPP1, Q00013 (setting [3]) is “below the threshold”; in the experiment with PDZD7_1, Q9H5P4 (setting [3]), “below the threshold”; in the experiment with MLLT4, P55196 (setting [3]), “below the threshold”.
